Here are results for six molecules from patent publication US6958236B2, “Control of gene expression in plants” (priority 2000, dated 2005).

For the test, the system named is pCGS154 reporter. Briefly: Transient transfection of S2 Drosophila cells with luciferase reporter and EcR receptor plasmids. The format is cell-based. Here is the method:
An in vivo cell based assay is designed to measure transcriptional activation by the receptors of a reporter plasmid. S2 Drosophila cells (ATCC CRL-1963) are transiently transfected with luciferase reporter and receptor expression plasmids using the calcium phosphate precipitation procedure (Di Nocera and David (1983) PNAS 80, 7095-7098). S2 cells are plated in 96 well format at a density of 2×10^5 in 166.6 μl of Schneider's Drosophila media supplemented with antibiotics and 10% heat inactivated fetal bovine serum (GIBO-BRL). The following day, 33.4 μl of a calcium phosphate precipitate containing 3-6 ng of pCGS154 reporter plasmid, 3-6 ng of EcR receptor plasmid along with salmon sperm DNA to a total of 400 ng DNA per well is added. Chemical ligands are added 16-24 hours after DNA addition to the cells. Cells are then harvested and extracted 24 hours after chemistry addition following the procedures for the luciferase assay by centrifuging and resuspending the cell pellets in 100 μl of cell culture lysis reagent (Promega). Luciferase activity is quantitated using chemiluminescence (Promega) using an analytical luminescence model 2001 luminometer.
S2 cells contain Drosophila EcR and USP. The endogenous USP can be used as the heterodimerization partner for EcR or exogenous USP expression plasmid can be added to the assay.
To compare the activities of Manduca and Drosophila EcR, S2 cells are transiently transfected using the above procedure with the reporter plasmid pCGS 154 and either full-length Drosophila EcR, DDV, full-length Manduca EcR, or MMV. Tebufenozide at 0.2 µM and 2 μM is used as the chemical ligand. Luciferase assays are performed as described above. All of the results are normalized as a ratio of activity to the light unit value for the pCGS154 reporter without chemistry.
The activities of the EcR-VP16 chimeras are compared by transiently transfecting S2 cells as described in Example 3. Tebufenozide is added to the cells at 0.2 μM concentration. Results are expressed as fold activation, a ratio of the activity of the constructs with chemistry added as compared to activity of the constructs without chemistry. All results are normalized to the luciferase activity of the pCGS154 reporter without receptor addition.
The activities of the EcR-VP16 chimeras are compared by transiently transfecting S2 cells as in Example 3. Tebufenozide is added to the cells at 0.2 μM concentration. Results are expressed as fold activation of constructs with chemistry as compared to without chemistry. All results are normalized to the luciferase activity of the pCGS154 reporter without receptor.
The activities of the EcR-VP16 chimeras are compared by transiently transfecting S2 cells as in Example 3. Tebufenozide is added to the cells at 0.2 μM concentration. Results are expressed as fold activation of constructs with chemistry as compared to without chemistry addition. All results are normalized to the luciferase activity of the pCGS154 reporter without receptor.

Setting [1] is: Example 6, 0.2 μM tebufenozide vs without chemistry, normalized to pCGS154 reporter without receptor.

B1: LLV: EcR chimera: Locusta migratoria C+D and E domains, VP16; SEQ ID NO:81-82 (protein)
chain: MGREDLSPLSSLNGYSADSCDAKKKKGAAPRQQEELCLVCGDRASGYHYNALTCEGCKGFFRRSITKNAVYQCKYGNNCEIDMYMRRKCQECRLKKCLTVGMRPECVVPEYQCAVKRKEKKAQKDKDKPNSTTNGSPEVMMLKDIDAKVEPERPLSNGIKPVSPEQEELIHRLVYFQNEYESPSEEDLRRVTSQPTEGEDQSDVRFRHITEITILTVQLIVEFAKRLPGFDKLLREDQIALLKACSSEVMMFRMARRYDVNSDSILFANNQPYTKDSYNLAGMGETIEDMLRFCRQMYAMKVDNAEYALLTAIVIFSERPSLVEGWKVEKIQEIYLEALKAYVDNRRRPKSGTIFAKLLSVLTELRTLGNQNSEMCFSLKLKNKKLPPFLAEIWDVIPKLAPPTDVSLGDELHLDGEDVAMAHADALDDFDLDMLGDGDSPGPGFTPHDSAPYGALDMADFEFEQMFTDALGIDEYGG
Consider B1, for which the “Fold Activation With Chemistry” value (Example 6, third column (LLV, LMV), 0.2 μM tebufenozide) was 0.47 fold.

B2: MDV: EcR chimera: Manduca sexta C+D domains, Drosophila melanogaster E domain, VP16 activation domain; SEQ ID NO:63-64 (protein)
chain: MGREELSPASSINGCSTDGEPRRQKKGPAPRQQEELCLVCGDRASGYHYNALTCEGCKGFFRRSVTKNAVYICKFGHACEMDMYMRRKCQECRLKKCLAVGMRPECVVPESTCKNKRREKEAQREKDKLPVSTTTVDDHMPAIMQCDPPPPEAARIHEVVPRFLTEKLMEQNRLKNVTPLSANQKSLIARLVWYQDGYEQPSEEDLRRIMSQPDENESQTDVSFRHITEITILTVQLIVEFAKGLPAFTKIPQEDQITLLKACSSEVMMLRMARRYDHSSDSIFFANNRSYTRDSYKMAGMADNIEDLLHFCRQMFSMKVDNVEYALLTAIVIFSDRPGLEKAQLVEAIQSYYIDTLRIYILNRHCGDSMSLVFYAKLLSILTELRTLGNQNAEMCFSLKLKNRKLPKFLEEIWDVHAIPPKLAPPTDVSLGDELHLDGEDVAMAHADALDDFDLDMLGDGDSPGPGFTPHDSAPYGALDMADFEFEQMFTDALGIDEYGG
For the molecule B2, under setting [1], the “Assay # 1 Fold Activation With Chemistry” value was determined as 1.20 fold and the “Assay # 2 Fold Activation With Chemistry” value is 1.18 fold. Under “Example 7, 0.2 μM tebufenozide”, the “Fold Activation With Chemistry Assay #1” value is listed as 1.1 fold and the “Fold Activation With Chemistry Assay #2” value is reported as 1.1 fold.

B3: MBV: EcR chimera: Manduca sexta C+D domains, black cutworm (Agrotis ipsilon) E domain, VP16; SEQ ID NO:65-66 (protein)
chain: MGREELSPASSINGCSTDGEPRRQKKGPAPRQQEELCLVCGDRASGYHYNALTCEGCKGFFRRSVTKNAVYICKFGHACEMDMYMRRKCQECRLKKCLAVGMRPECVVPESTCKNKRREKEAQREKDKLPVSTTTVDDHMPAIMQCDPPPPEAARIHEVVPRFLTEKLMEQNRLKNVTPLSANQKSLIARLVWYQEGYEQPSEEDLKRVTQTWQSDEDEEESDMPFRQITEMTILTVQLIVEFAKGLPGFAKISQSDQITLLKACSSEVMMLRVARRYDAATDSVLFANNQAYSRDNYRKAGMSYVIEDLLHFCRCMYSMMMDNVHYALLTAIVIFSDRPGLEQPLLVEEIQRYYLNTLRVYILNQNSASPRCPVVFAKILGILTELRTLGMQNSNMCISLKLKNRKLPPFLEEIWDVESRGKLAPPTDVSLGDELHLDGEDVAMAHADALDDFDLDMLGDGDSPGPGFTPHDSAPYGALDMADFEFEQMFTDALGIDEYGG
With B3, the “Fold Activation With Chemistry Assay #1” value (Example 7, 0.2 μM tebufenozide) is 215.7 fold and the “Fold Activation With Chemistry Assay #1” value (Example 8, 0.2 μM tebufenozide) stood at 559.1 fold. Further, the “Fold Activation With Chemistry Assay #2” value is, setting by setting: (Example 7, 0.2 μM tebufenozide) 211.1 fold; (Example 8, 0.2 μM tebufenozide) 866.7 fold.

B4: MLV: EcR chimera: Manduca sexta C+D domains, Locusta migratoria E domain, VP16; SEQ ID NO:85-86 (protein)
chain: MGREELSPASSINGCSTDGEPRRQKKGPAPRQQEELCLVCGDRASGYHYNALTCEGCKGFFRRSVTKNAVYICKFGHACEMDMYMRRKCQECRLKKCLAVGMRPECVVPESTCKNKRREKEAQREKDKLPVSTTTVDDHMPAIMQCDPPPPEAARIHEVVPRFLTEKLMEQNRLKNVTPLSANQKSLIARLVWYQNEYESPSEEDLRRVTSQPTEGEDQSDVRFRHITEITILTVQLIVEFAKRLPGFDKLLREDQIALLKACSSEVMMFRMARRYDVNSDSILFANNQPYTKDSYNLAGMGETIEDMLRFCRQMYAMKVDNAEYALLTAIVIFSERPSLVEGWKVEKIQEIYLEALKAYVDNRRRPKSGTIFAKLLSVLTELRTLGNQNSEMCFSLKLKNKKLPPFLAEIWDVIPKLAPPTDVSLGDELHLDGEDVAMAHADALDDFDLDMLGDGDSPGPGFTPHDSAPYGALDMADFEFEQMFTDALGIDEYGG
Regarding B4, under “Example 7, 0.2 μM tebufenozide”, the “Fold Activation With Chemistry Assay #1” value is on record as 1.7 fold and the “Fold Activation With Chemistry Assay #2” value is on record as 1.0 fold.

B5: MFV: EcR chimera: Manduca sexta C+D domains, fall armyworm (Spodoptera frugiperda) E domain, VP16; SEQ ID NO:69-70 (protein)
chain: MGREELSPASSINGCSTDGEPRRQKKGPAPRQQEELCLVCGDRASGYHYNALTCEGCKGFFRRSVTKNAVYICKFGHACEMDMYMRRKCQECRLKKCLAVGMRPECVVPESTCKNKRREKEAQREKDKLPVSTTTVDDHMPAIMQCDPPPPEAARIHEVVPRFLTEKLMEQNRLKNVTPLSANQKSLIARLVWYQEGYEQPSEEDLKRVTQTWQLEEEEEEETDMPFRQITEMTILTVQLIVEFAKGLPGFSKISQSDQITLLKASSSEVMMLRVARRYDAATDSVLFANNQAYTRDNYRKAGMSYVIGDLLHFCRCMYSMSMDNVHYALLTAIVIFSDRPGLEQPLLVEEIQRYYLKTLRVYILNQYSASPRCAVLFGKILGVLTELRTLGTQNSNMCISLKLKNRKLPPFLEEIWDVKLAPPTDVSLGDELHLDGEDVAMAHADALDDFDLDMLGDGDSPGPGFTPHDSAPYGALDMADFEFEQMFTDALGIDEYGG
Take B5: under “Example 7, 0.2 μM tebufenozide”, the “Fold Activation With Chemistry Assay #1” value turned out to be 159.9 fold and the “Fold Activation With Chemistry Assay #2” value came to 175.4 fold.

B6: MEV: EcR chimera: Manduca sexta C+D domains, European corn borer (Ostrinia nubilalis) E domain, VP16; SEQ ID NO:67-68 (protein)
chain: MGREELSPASSINGCSTDGEPRRQKKGPAPRQQEELCLVCGDRASGYHYNALTCEGCKGFFRRSVTKNAVYICKFGHACEMDMYMRRKCQECRLKKCLAVGMRPECVVPESTCKNKRREKEAQREKDKLPVSTTTVDDHMPAIMQCDPPPPEAARIHEVVPRFLTEKLMEQNRLKNVTPLSANQKSLIARLVWYQDGYEQPSEEDLKRVTQTWQSADEEDEDSDMPFRQITEMTILTVQLIVEFAKGLPGFSKISQPDQITLLKACSSEVMMLRVARRYDAVSDSVLFANNQAYTRDNYRKAGMAYVIEDLLHFCRCMYSMSMDNVHYALLTAIVIFSDRPGLEQPQLVEEIQRYYLNTLRVYIMNQHSASPRCAVIYAKILSVLTELRTLGMQNSNMCISLKLKNRKLPPFLEEIWDVKLAPPTDVSLGDELHLDGEDVAMAHADALDDFDLDMLGDGDSPGPGFTPHDSAPYGALDMADFEFEQMFTDALGIDEYGG
Turning to B6, under “Example 7, 0.2 μM tebufenozide”, the “Fold Activation With Chemistry Assay #1” value is 363.7 fold and the “Fold Activation With Chemistry Assay #2” value was found to be 131.5 fold.
